# Data from article PMC6030378.
# Biological target: human IgG1 Fc fragment released from ROR-ED-Fc by 3C protease (human)
# Assay: SEC; Superdex 200 10/300 of the fusion protein cleaved with 3C protease; 50 mM HEPES, 500 mM NaCl, 150 mM KCl, 300 mM arginine, 5% glycerol; ROR-ED at 12.4 ml, Fc at 14.3 ml; mass estimated against standards, glycans considered
substance,measurement,value
human IgG1 Fc fragment released from ROR-ED-Fc by 3C protease (domain or fragment),stoichiometry N,2
